Source: article PMC6418199 (Scientific Reports, 2019)

B1: 32D6 human monoclonal antibody (antibody, V domains shown)
VH: QVQLQESGPGLVKPSETLSLTCTVSGGSVNTGSYYWSWIRQPPGKGLEWIAYSSVSGTSNYNPSLKSRVTLTVDTSKNQFSLSVRSVTAADTAVYFCARLNYDILTGYYFFDFWGQGTLVIVSS
VL: QVELTQSPSASASLGTSVKLTCTLSSGHSTYAIAWHQQRPGKGPRYLMNLSSGGRHTRGDGIPDRFSGSSSGADRYLIISSLQSEDEADYYCQTWDAGMVFGGGTKLTVL
B2: 32D6-Fab (Fab, V domains shown)
VH: QVQLQESGPGLVKPSETLSLTCTVSGGSVNTGSYYWSWIRQPPGKGLEWIAYSSVSGTSNYNPSLKSRVTLTVDTSKNQFSLSVRSVTAADTAVYFCARLNYDILTGYYFFDFWGQGTLVIVSS
VL: QVELTQSPSASASLGTSVKLTCTLSSGHSTYAIAWHQQRPGKGPRYLMNLSSGGRHTRGDGIPDRFSGSSSGADRYLIISSLQSEDEADYYCQTWDAGMVFGGGTKLTVL
notes: also called Fab of 32D6; His-tagged Fab of 32D6 (with the CH1 domain); source: Expi293F cells, purified (HisTrap excel column)

Assays:
[1] = target: hemagglutinin of H1N1 clinical isolate 2014-INF-37 (genotype A/California/07/2009) (Influenza A virus H1N1, clinical …, UniProt C3W5X2, strain); test: cell-based or functional assay
[2] = target: hemagglutinin of H1N1 clinical isolate 2013-INF-153 (genotype A/California/07/2009) (Influenza A virus H1N1, clinical …, UniProt C3W5X2, strain); test: cell-based or functional assay
[3] = target: hemagglutinin of H1N1 clinical isolate 2014-INF-36 (genotype A/California/07/2009) (Influenza A virus H1N1, clinical …, UniProt C3W5X2, strain); test: cell-based or functional assay
[4] = target: hemagglutinin of H1N1 clinical isolate 2013-INF-152 (genotype A/California/07/2009) (Influenza A virus H1N1, clinical …, UniProt C3W5X2, strain); test: cell-based or functional assay
[5] = target: hemagglutinin of H1N1 clinical isolate A/Taiwan/80813/2013 (genotype A/California/07/2009) (Influenza A virus A/Taiwan/80813/2013 …, UniProt C3W5X2, strain); test: cell-based or functional assay
[6] = target: HA1 domain (residues 63-290) of hemagglutinin from A/California/07/2009 (H1N1) (Influenza A virus …, UniProt C3W5X2); test: SPR; […], single-cycle kinetics, 25 °C; […]; 10 mM HEPES pH 7.4, 150 mM NaCl; conditions: both partners purified

| Binder | Neutralization EC50 (infection of MDCK cells, high-content image system) [1] [mg/L] | Neutralization EC50 (infection of MDCK cells, high-content image system) [2] [mg/L] | Neutralization EC50 (infection of MDCK cells, high-content image system) [3] [mg/L] | Neutralization EC50 (infection of MDCK cells, high-content image system) [4] [mg/L] | Neutralization EC50 (infection of MDCK cells, high-content image system) [5] [mg/L] | Kd [6] [nM] | koff [6] [s⁻¹] | kon [6] [M⁻¹ s⁻¹] |
| --- | --- | --- | --- | --- | --- | --- | --- | --- |
| B1 | 0.012 | 0.005 | 0.011 | 0.014 | 0.036 | – | – | – |
| B2 | – | – | – | – | – | 0.353 | 9.12e-05 | 258000 |
